Patent publication US20100129369A1 (Eli Lilly, published 2010)

Legend:
human c-Met [1] = biological target: T1, human c-Met (human, UniProt P08581 25-1390); assay: cell-based or functional assay
human c-Met [2] = biological target: T1, human c-Met; assay: cell-based or functional assay; remark: listed apart in the source
human c-Met [3] = biological target: T1, human c-Met; assay: cell-based or functional assay; remark: listed apart in the source
human c-Met [4] = biological target: T1, human c-Met; assay: cell-based or functional assay; remark: listed apart in the source
Human c-Met-Flis-Fc ECD [5] = biological target: T2, Human c-Met-Flis-Fc ECD (human); assay: ELISA, coated ECD-Fc, antibody 0.000 ng/mL
T2 construct: also called human c-Met extracellular domain (ECD)-Fc-Flis fusion; Human cMet-ECD-Fc-Flis
T2 sequence (chain, as listed by the source limits assumed): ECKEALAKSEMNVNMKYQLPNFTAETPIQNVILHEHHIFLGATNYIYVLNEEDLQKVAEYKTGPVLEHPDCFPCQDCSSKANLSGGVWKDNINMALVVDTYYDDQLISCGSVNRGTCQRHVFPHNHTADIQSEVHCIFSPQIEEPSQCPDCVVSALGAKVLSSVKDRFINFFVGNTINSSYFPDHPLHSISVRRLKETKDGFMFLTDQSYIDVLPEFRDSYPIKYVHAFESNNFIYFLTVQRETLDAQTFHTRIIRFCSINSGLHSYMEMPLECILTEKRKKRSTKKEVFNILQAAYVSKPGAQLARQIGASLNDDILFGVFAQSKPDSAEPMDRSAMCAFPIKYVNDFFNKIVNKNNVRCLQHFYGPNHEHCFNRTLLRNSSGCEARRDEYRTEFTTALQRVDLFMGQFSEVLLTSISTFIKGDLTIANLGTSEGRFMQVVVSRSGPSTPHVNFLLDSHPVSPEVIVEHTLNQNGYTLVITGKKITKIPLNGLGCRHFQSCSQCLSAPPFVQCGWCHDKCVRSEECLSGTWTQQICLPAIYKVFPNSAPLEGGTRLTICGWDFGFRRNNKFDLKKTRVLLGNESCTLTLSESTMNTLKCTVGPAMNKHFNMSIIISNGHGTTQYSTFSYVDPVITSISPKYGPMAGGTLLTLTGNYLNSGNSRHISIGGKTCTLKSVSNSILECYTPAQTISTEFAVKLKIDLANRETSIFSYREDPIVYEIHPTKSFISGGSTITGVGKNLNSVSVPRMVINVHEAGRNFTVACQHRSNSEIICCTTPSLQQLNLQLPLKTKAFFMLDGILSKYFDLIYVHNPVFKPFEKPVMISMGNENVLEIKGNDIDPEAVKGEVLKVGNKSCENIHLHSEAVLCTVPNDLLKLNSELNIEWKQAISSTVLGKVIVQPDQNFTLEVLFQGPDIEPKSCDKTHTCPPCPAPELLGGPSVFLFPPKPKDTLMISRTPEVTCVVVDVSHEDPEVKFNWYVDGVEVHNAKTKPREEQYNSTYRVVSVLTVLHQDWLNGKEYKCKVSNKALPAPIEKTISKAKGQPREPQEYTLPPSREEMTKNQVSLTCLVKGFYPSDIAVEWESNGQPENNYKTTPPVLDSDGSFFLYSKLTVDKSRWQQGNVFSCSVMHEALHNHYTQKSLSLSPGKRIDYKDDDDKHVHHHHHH
Protocol: (§1) Wells of 96-well EIA/RIA high binding plates (Costar, #2592) are coated with 100 μL of 1 μg/mL human c-Met extracellular domain (ECD)-Fc-Flis fusion (SEQ ID NO:72), RON-ECD-Fc (R&D Systems, #1947-MS), or PlexinA2-ECD-Fc (Abnova, Taipei, Taiwan #H00005362-P01) in coating buffer (BioFX Labs, # COAT-1000-01) overnight at 4° C. […] After the plates are washed, 100 μL/well of substrate solution (BioFx, #TMBW-1000-01) are added and the plates are incubated for 10 min. at room temperature. 100 μL/well of stop solution (BioFx, # LSTP-1000-01) are added to stop the reaction. The colorimetric signals are developed and read at 450 nm using a SpectraMax 190 plate reader (Molecular Devices, Sunnyvale, Calif.). c-Met antibody binding to c-Met, RON and PlexinA2 ECDs is proportional to color signal production.

Human c-Met-Flis-Fc ECD [6] = biological target: T2, Human c-Met-Flis-Fc ECD; assay: ELISA, coated ECD-Fc, antibody 0.002 ng/mL
Protocol: as §1

Human c-Met-Flis-Fc ECD [7] = biological target: T2, Human c-Met-Flis-Fc ECD; assay: ELISA, coated ECD-Fc, antibody 0.010 ng/mL
Protocol: as §1

Human c-Met-Flis-Fc ECD [8] = biological target: T2, Human c-Met-Flis-Fc ECD; assay: ELISA, coated ECD-Fc, antibody 0.060 ng/mL
Protocol: as §1

Human c-Met-Flis-Fc ECD [9] = biological target: T2, Human c-Met-Flis-Fc ECD; assay: ELISA, coated ECD-Fc, antibody 0.357 ng/mL
Protocol: as §1

Human c-Met-Flis-Fc ECD [10] = biological target: T2, Human c-Met-Flis-Fc ECD; assay: ELISA, coated ECD-Fc, antibody 2.143 ng/mL
Protocol: as §1

Human c-Met-Flis-Fc ECD [11] = biological target: T2, Human c-Met-Flis-Fc ECD; assay: ELISA, coated ECD-Fc, antibody 12.860 ng/mL
Protocol: as §1

Human c-Met-Flis-Fc ECD [12] = biological target: T2, Human c-Met-Flis-Fc ECD; assay: ELISA, coated ECD-Fc, antibody 77.160 ng/mL
Protocol: as §1

Human c-Met-Flis-Fc ECD [13] = biological target: T2, Human c-Met-Flis-Fc ECD; assay: ELISA, coated ECD-Fc, antibody 462.963 ng/mL
Protocol: as §1

Human c-Met-Flis-Fc ECD [14] = biological target: T2, Human c-Met-Flis-Fc ECD; assay: ELISA, coated ECD-Fc, antibody 2777.778 ng/mL
Protocol: as §1

Human c-Met-Flis-Fc ECD [15] = biological target: T2, Human c-Met-Flis-Fc ECD; assay: ELISA, coated ECD-Fc, antibody 16666.667 ng/mL
Protocol: as §1

Human c-Met-Flis-Fc ECD [16] = biological target: T2, Human c-Met-Flis-Fc ECD; assay: ELISA, coated ECD-Fc, antibody 100000.000 ng/mL
Protocol: as §1

Human c-Met-Flis-Fc ECD [17] = biological target: T2, Human c-Met-Flis-Fc ECD; assay: SPR Biacore, antibody captured, ECD-Fc analyte, 1:1 model
Protocol: (§2) A Biacore® 2000 instrument is used to measure the binding kinetics of c-Met antibodies to human, cynomolgus monkey, and rat c-Met ECDs. Measurements are performed at 25° C. Samples are dissolved in HBS-EP buffer (150 mM sodium chloride, 3 mM EDTA, 0.005% (w/v) surfactant P-20, and 10 mM N-2-hydroxyethylpiperazine-N′-2-ethanesulfonic acid (HEPES) at pH 7.4; #BR-1001-88).
(§3) Binding is evaluated using multiple cycles. Each cycle is performed at a flow rate of 50 μL/min., and consists of the following steps: injection of about 10 μL of a c-Met antibody at 10 μg/mL aiming at a capture of 40-100 RUs, injection of 250 μL of human, cynomolgus, or rat c-Met-Flis-Fc ECD (starting at 100 nM and using two-fold serial dilutions for each cycle) followed by 20 min. for dissociation, and regeneration using about 30 μL of 10 mM glycine hydrochloride, pH 1.5. Association and dissociation rates for each cycle are evaluated using a “1:1 (Langmuir) binding” model in the BIAevaluation software, version 4.1.

[18] = biological target: T3, Cynomolgus Monkey c-Met-Flis-Fc ECD (cynomolgus monkey); assay: as above
T3 construct: also called Cynomolgus Monkey cMet-ECD-Fc-Flis; cynomolgus monkey c-Met ECD
T3 sequence (chain, as listed by the source limits assumed): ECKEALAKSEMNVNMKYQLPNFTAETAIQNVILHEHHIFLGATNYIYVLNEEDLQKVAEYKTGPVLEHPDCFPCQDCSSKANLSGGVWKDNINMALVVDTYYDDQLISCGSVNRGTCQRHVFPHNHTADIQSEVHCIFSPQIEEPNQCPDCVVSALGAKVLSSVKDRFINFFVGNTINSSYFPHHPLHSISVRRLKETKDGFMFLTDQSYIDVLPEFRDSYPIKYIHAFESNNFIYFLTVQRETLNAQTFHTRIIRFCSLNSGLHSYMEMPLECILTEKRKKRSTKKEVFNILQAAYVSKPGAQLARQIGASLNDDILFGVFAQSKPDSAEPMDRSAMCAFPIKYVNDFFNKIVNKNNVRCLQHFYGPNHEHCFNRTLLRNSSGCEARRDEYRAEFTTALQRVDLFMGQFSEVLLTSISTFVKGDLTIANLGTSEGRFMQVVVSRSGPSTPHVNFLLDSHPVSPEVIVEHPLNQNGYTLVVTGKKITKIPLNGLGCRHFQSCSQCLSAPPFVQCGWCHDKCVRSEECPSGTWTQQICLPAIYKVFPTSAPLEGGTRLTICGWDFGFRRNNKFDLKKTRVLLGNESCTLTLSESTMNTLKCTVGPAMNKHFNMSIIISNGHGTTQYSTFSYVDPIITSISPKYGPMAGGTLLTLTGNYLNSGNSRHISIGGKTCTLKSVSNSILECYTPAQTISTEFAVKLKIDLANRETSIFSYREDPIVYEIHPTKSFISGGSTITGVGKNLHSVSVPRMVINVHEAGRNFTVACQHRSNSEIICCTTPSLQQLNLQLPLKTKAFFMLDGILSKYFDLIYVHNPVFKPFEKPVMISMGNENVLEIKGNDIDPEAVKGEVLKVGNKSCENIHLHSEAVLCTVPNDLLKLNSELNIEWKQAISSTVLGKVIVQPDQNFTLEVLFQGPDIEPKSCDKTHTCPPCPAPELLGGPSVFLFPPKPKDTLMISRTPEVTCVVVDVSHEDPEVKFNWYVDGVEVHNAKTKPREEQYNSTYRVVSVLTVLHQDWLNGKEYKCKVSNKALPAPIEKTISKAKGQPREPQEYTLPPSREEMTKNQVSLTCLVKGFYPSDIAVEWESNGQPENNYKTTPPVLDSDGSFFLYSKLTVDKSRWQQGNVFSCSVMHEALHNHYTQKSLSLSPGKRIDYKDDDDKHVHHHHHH
Protocol: as §2, §3

Rat c-Met-Flis-Fc ECD [19] = biological target: T4, Rat c-Met-Flis-Fc ECD (rat); assay: SPR Biacore, antibody captured, heterogeneous ligand model, first affinity
T4 construct: also called Rat cMet-ECD-Fc-Flis; rat c-Met ECD
T4 sequence (chain, as listed by the source limits assumed): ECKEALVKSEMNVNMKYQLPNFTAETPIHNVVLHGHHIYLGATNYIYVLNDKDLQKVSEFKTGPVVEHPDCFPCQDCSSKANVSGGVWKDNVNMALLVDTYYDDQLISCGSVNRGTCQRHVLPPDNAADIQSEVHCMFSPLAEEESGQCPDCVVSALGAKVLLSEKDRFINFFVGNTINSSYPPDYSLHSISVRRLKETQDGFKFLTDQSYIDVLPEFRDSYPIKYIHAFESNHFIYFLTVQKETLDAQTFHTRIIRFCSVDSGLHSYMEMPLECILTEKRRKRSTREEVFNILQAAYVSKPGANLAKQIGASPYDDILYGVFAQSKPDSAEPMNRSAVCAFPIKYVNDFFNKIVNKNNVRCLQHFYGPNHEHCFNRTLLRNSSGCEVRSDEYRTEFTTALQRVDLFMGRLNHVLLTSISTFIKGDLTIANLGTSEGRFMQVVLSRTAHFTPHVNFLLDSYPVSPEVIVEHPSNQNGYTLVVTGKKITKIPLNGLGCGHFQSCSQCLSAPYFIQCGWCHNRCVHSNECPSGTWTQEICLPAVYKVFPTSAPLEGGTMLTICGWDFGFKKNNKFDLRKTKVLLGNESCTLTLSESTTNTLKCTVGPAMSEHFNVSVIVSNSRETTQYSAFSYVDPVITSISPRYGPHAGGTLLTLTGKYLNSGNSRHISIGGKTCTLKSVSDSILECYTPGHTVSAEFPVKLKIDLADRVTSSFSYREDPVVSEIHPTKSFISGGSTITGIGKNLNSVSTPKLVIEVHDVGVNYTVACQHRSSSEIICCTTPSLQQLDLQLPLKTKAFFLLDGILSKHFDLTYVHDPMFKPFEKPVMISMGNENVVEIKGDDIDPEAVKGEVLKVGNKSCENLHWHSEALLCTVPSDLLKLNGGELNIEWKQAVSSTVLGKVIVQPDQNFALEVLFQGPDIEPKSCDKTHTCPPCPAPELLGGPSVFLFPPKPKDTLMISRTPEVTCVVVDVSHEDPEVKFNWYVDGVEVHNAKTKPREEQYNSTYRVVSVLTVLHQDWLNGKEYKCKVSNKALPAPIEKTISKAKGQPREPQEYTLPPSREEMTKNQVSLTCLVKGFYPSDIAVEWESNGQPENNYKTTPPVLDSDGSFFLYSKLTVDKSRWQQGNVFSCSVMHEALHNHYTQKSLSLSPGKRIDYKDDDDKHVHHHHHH
Protocol: as §2
(§4) Binding is evaluated using multiple cycles. Each cycle is performed at a flow rate of 50 μL/min., and consists of the following steps: injection of about 10 μL of a c-Met antibody at 10 μg/mL aiming at a capture of 40-100 RUs, injection of 250 μL of human, cynomolgus, or rat c-Met-Flis-Fc ECD (starting at 100 nM and using two-fold serial dilutions for each cycle) followed by 20 min. for dissociation, and regeneration using about 30 μL of 10 mM glycine hydrochloride, pH 1.5. […]

Rat c-Met-Flis-Fc ECD [20] = biological target: T4, Rat c-Met-Flis-Fc ECD; assay: SPR Biacore, antibody captured, heterogeneous ligand model, second affinity
Protocol: as §2, §4

T1 sequence (P08581 25-1390): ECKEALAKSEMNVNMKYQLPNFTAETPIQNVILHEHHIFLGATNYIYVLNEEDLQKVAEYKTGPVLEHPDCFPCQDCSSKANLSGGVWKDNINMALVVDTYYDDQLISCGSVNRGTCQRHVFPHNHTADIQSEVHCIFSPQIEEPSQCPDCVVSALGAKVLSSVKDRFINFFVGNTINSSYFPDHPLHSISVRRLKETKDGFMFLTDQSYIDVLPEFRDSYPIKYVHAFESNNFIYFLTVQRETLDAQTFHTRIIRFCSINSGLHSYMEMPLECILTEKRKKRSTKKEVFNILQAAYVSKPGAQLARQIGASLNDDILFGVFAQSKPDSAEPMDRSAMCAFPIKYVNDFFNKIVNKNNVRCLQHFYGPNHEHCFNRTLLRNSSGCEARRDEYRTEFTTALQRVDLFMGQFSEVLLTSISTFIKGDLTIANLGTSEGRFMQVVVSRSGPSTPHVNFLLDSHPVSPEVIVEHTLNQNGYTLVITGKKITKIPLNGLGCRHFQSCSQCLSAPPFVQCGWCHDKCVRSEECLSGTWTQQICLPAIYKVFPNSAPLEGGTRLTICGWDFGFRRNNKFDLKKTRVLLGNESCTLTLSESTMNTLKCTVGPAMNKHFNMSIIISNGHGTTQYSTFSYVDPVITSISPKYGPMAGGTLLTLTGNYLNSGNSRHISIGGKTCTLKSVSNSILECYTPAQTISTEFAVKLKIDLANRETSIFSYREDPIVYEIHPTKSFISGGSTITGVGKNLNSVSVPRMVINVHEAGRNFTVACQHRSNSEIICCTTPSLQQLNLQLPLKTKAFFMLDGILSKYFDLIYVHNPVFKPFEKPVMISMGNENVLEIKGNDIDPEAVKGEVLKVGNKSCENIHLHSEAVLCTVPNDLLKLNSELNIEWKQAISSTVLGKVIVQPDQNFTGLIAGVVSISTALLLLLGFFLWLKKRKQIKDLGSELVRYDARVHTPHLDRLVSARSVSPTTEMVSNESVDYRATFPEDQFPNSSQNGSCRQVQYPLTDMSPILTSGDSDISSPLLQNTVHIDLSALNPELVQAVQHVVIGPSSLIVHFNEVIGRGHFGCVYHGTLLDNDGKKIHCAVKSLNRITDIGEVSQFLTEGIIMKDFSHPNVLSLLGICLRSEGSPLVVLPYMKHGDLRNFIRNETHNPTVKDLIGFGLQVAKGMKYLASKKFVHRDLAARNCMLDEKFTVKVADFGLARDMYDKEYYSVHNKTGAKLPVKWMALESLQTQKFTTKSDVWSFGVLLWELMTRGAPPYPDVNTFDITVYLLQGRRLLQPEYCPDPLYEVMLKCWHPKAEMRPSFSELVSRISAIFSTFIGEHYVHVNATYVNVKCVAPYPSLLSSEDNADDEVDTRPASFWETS

B1: D11-8B8 (antibody, human IgG2, kappa, V domains shown)
VH: QVQLVQSGAEVKKPGSSVKVSCKASGYTFTSRYIHWVRQAPGQGLEWMGWIYPVTGDTYYIEKFKGRVTITADKSTSTAYMELSSLRSEDTAVYYCARGYGAFFYWGQGTLVTVSS
VL: EIVLTQSPGTLSLSPGERATLSCSVSSSISSTNLHWYQQKPGQAPRLLIYGTSYLASGIPDRFSGSGSGTDFTLTISRLEPEDFAVYYCQQWSSYPYSFGQGTKLEIKR
3H-Thymidine Incorporation in Caki-1 Cells in the Absence of HGF (AVG CPM), antibody dose 0.1 ng/mL (human c-Met [1]): 15300 CPM
3H-Thymidine Incorporation in Caki-1 Cells in the Absence of HGF (AVG CPM), antibody dose 0.4 ng/mL (human c-Met [1]): 14400 CPM
3H-Thymidine Incorporation in Caki-1 Cells in the Absence of HGF (AVG CPM), antibody dose 2.6 ng/mL (human c-Met [1]): 14100 CPM
3H-Thymidine Incorporation in Caki-1 Cells in the Absence of HGF (AVG CPM), antibody dose 15.4 ng/mL (human c-Met [1]): 13500 CPM
3H-Thymidine Incorporation in Caki-1 Cells in the Absence of HGF (AVG CPM), antibody dose 92.6 ng/mL (human c-Met [1]): 13700 CPM
3H-Thymidine Incorporation in Caki-1 Cells in the Absence of HGF (AVG CPM), antibody dose 555.6 ng/mL (human c-Met [1]): 14000 CPM
3H-Thymidine Incorporation in Caki-1 Cells in the Absence of HGF (AVG CPM), antibody dose 3333.3 ng/mL (human c-Met [1]): 15700 CPM
3H-Thymidine Incorporation in Caki-1 Cells in the Absence of HGF (AVG CPM), antibody dose 20000.0 ng/mL (human c-Met [1]): 15900 CPM
3H-Thymidine Incorporation in Primary Human Hepatocytes in the Absence of HGF (average), dose 0.0032 ug/mL (human c-Met [2]): 611
3H-Thymidine Incorporation in Primary Human Hepatocytes in the Absence of HGF (average), dose 0.016 ug/mL (human c-Met [2]): 715
3H-Thymidine Incorporation in Primary Human Hepatocytes in the Absence of HGF (average), dose 0.08 ug/mL (human c-Met [2]): 1120
3H-Thymidine Incorporation in Primary Human Hepatocytes in the Absence of HGF (average), dose 0.4 ug/mL (human c-Met [2]): 1230
3H-Thymidine Incorporation in Primary Human Hepatocytes in the Absence of HGF (average), dose 2 ug/mL (human c-Met [2]): 1430
3H-Thymidine Incorporation in Primary Human Hepatocytes in the Absence of HGF (average), dose 10 ug/mL (human c-Met [2]): 1700
Percent of DU145 Cells in Colonies (scatter assay), antibody 20 ug/mL (human c-Met [3]): 25.6%
Staurosporine-Induced Apoptosis in Caki-1 Cells, Average A450 nm, antibody dose 3 ng/mL (human c-Met [4]): 1.02 A450 nm
Staurosporine-Induced Apoptosis in Caki-1 Cells, Average A450 nm, antibody dose 30 ng/mL (human c-Met [4]): 0.91 A450 nm
Staurosporine-Induced Apoptosis in Caki-1 Cells, Average A450 nm, antibody dose 300 ng/mL (human c-Met [4]): 0.81 A450 nm
Staurosporine-Induced Apoptosis in Caki-1 Cells, Average A450 nm, antibody dose 3000 ng/mL (human c-Met [4]): 0.91 A450 nm
Staurosporine-Induced Apoptosis in Caki-1 Cells, Average A450 nm, antibody dose 30000 ng/mL (human c-Met [4]): 0.87 A450 nm

B2: D11-S17Y (antibody, human IgG2, kappa, V domains shown)
VH: QVQLVQSGAEVKKPGSSVKVSCKASGYTFTSRYIHWVRQAPGQGLEWMGWIYPVTGDTYYNEKFKGRVTITADKSTSTAYMELSSLRSEDTAVYYCARGYGAFYYWGQGTLVTVSS
VL: EIVLTQSPGTLSLSPGERATLSCSVSSSISSTNLHWYQQKPGQAPRLLIYGTSYLASGIPDRFSGSGSGTDFTLTISRLEPEDFAVYYCQQWSSYPYSFGQGTKLEIKR
notes: Human engineered IgG2, kappa
Average A450 nm (Human c-Met-Flis-Fc ECD [5]): 0.315 A450 nm
Average A450 nm (Human c-Met-Flis-Fc ECD [6]): 0.309 A450 nm
Average A450 nm (Human c-Met-Flis-Fc ECD [7]): 0.314 A450 nm
Average A450 nm (Human c-Met-Flis-Fc ECD [8]): 0.374 A450 nm
Average A450 nm (Human c-Met-Flis-Fc ECD [9]): 0.789 A450 nm
Average A450 nm (Human c-Met-Flis-Fc ECD [10]): 2.14 A450 nm
Average A450 nm (Human c-Met-Flis-Fc ECD [11]): 4 A450 nm
Average A450 nm (Human c-Met-Flis-Fc ECD [12]): 4 A450 nm
Average A450 nm (Human c-Met-Flis-Fc ECD [13]): 4 A450 nm
Average A450 nm (Human c-Met-Flis-Fc ECD [14]): 4 A450 nm
Average A450 nm (Human c-Met-Flis-Fc ECD [15]): 4 A450 nm
Average A450 nm (Human c-Met-Flis-Fc ECD [16]): 4 A450 nm
Kd (Human c-Met-Flis-Fc ECD [17]): 4.2 nM
koff (Human c-Met-Flis-Fc ECD [17]): 0.00028 s⁻¹
kon (Human c-Met-Flis-Fc ECD [17]): 70000 M⁻¹ s⁻¹
Kd [18]: 5.1 nM
koff [18]: 0.00036 s⁻¹
kon [18]: 70000 M⁻¹ s⁻¹
Kd (Rat c-Met-Flis-Fc ECD [19]): 286 nM
koff (Rat c-Met-Flis-Fc ECD [19]): 0.0189 s⁻¹
kon (Rat c-Met-Flis-Fc ECD [19]): 66000 M⁻¹ s⁻¹
Kd (Rat c-Met-Flis-Fc ECD [20]): 1.2 nM
koff (Rat c-Met-Flis-Fc ECD [20]): 0.0003 s⁻¹
kon (Rat c-Met-Flis-Fc ECD [20]): 250000 M⁻¹ s⁻¹
